Laboratory results reported in US6150168.

Key:
[1] = target: adenovirus receptor on primary mouse hepatocytes (mouse)
[2] = target: ASOR receptor (asialoglycoprotein receptor) on primary mouse hepatocytes (mouse) (UniProt P34927); conditions: scale: % conversion of phenylalanine to tyrosine
[3] = target: ASOR receptor (asialoglycoprotein receptor) on primary mouse hepatocytes (mouse) (UniProt P34927)
[4] = target: ASOR receptor (asialoglycoprotein receptor) on primary mouse hepatocytes (mouse) (UniProt P34927); remark: listed apart in the source
[5] = target: ASOR receptor (asialoglycoprotein receptor) on primary mouse hepatocytes (mouse) (UniProt P34927); remark: listed apart in the source
[6] = target: ASOR receptor on HepG2 cells

Substance: adenovirus (d1312) conjugated with PLL at low EDC concentrations
- percentage of cells staining positive for beta-gal after delivery with the low EDC ADV-PLL/DNA complex, in the presence of a 1000-fold excess of free ASOR [1]: 80 % of cells

Substance: ASOR/poly-L-lysine conjugate (ASOR/PLL conjugate)
- phenylalanine hydroxylase activity (percent conversion of phenylalanine to tyrosine) in PAH deficient mouse hepatocytes after delivery of CMV/hPAH DNA in complex form with adenovirus [2]: 26
- percentage of cells expressing β-gal, ASOR-PLL/DNA complexes with free adenovirus, in the presence of a 1000-fold excess of free ASOR [3]: < 2 % of cells
- percentage of cells staining blue, complex containing adenovirus conjugated with PLL at high EDC concentrations, in the presence of a 1000-fold excess of free ASOR [3]: < 30 % of cells
- percentage of cells staining positive for beta-gal, complex containing adenovirus conjugated with PLL at low EDC concentrations, in the presence of a 1000-fold excess of free ASOR [3]: 80 % of cells
- canine factor IX (cFIX) level in supernatants of primary mouse hepatocytes after delivery of pCMV/cFIX with the high EDC ADV-PLL/DNA complex (µg/10^6 cells/24 hours) [4]: 0.79

Substance: asialoorosomucoid (ASOR) (ligand)
- internalized ^3 H counts after a 2 hour incubation (dose-response of ^3 H-ASOR uptake) (molecules/cell) [5]: 320000
- internalized ^3 H counts after a 2 hour incubation (dose-response of ^3 H-ASOR uptake) (molecules/cell) [6]: 150000
